US20090311685A1, “NMU-GHSR1b/NTSR1 oncogenic signaling pathway as a therapeutic target for lung cancer” (Oncotherapy Science, Inc, priority 2006, published 2009)
Where no end group is shown, it is not given here.

Experiments:
[1] = molecular target: T1, endogenous GHSR1b and NTSR1 on PC14 cells (Homo sapiens, UniProt P30989+Q92847); assay: Ligand-receptor binding assay with Cy5-labeled NMU-25; conditions: 1 μM, dose-dependent
T1 construct: endogenous in cells; host or cells: PC14
Procedure: (§1) To confirm the binding of NMU-25 to endogenous candidate receptors on the NSCLC cell, a receptor-ligand binding assay using LC319 and PC14 cells that express GHSR1b and NTSR1, but not NMU1R and NMU2R were performed. Specifically, trypsinized cells were seeded onto a 96-well (with black wall and clear bottom) microtiter plates 24 hours prior to the assay. The medium was removed and the cells were incubated with CyS-labeled NMU-25 peptide (1 μM) with or without the addition of 10-fold excess unlabeled NMU-25 peptide as the competitor. The plate was incubated in dark for 24 hours at 37° C. and then scanned on 8200 Cellular Detection System (Applied Biosystems) to quantify the amount of CyS fluorescence probe bound to the surface of each cell. (15) Immunocytochemistry for Internalized Receptors

[2] = molecular target: T2, endogenous GHSR1b and NTSR1 on LC319 cells (Homo sapiens, UniProt P30989+Q92847); assay: as above; conditions: 1 μM, dose-dependent
T2 construct: endogenous in cells; host or cells: LC319
T2 sequence (P30989 whole entry, one chain of several): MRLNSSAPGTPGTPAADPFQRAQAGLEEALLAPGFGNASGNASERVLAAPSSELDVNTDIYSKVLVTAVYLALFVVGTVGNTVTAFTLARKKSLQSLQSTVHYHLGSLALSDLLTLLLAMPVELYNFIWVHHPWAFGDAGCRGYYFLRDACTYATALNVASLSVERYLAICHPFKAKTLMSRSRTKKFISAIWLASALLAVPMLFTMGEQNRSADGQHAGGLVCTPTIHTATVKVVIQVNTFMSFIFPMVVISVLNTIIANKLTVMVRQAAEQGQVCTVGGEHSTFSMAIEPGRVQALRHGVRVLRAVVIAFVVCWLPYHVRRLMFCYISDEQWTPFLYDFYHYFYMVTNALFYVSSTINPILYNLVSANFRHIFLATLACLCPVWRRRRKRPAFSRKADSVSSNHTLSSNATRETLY
Procedure: as §1

LC319 cells [3] = assay: Intracellular Ca^2+ mobilization assay (FLIPR); type: cell-based, human
Procedure: Trypsinized LC319 cells were seeded onto poly-D-lysine coated 384-well black-wall, clear-bottom microtiter plate (1.0×10^4 cells/ml) 24 hours prior to the assay. The cells were loaded for 1 hour with 4 μM Fluo-3-AM fluorescent indicator dye in assay buffer (Hank's balanced salt solution, 20 mM HEPES, 2.5 mM probenecid), washed three times with assay buffer, and then incubated for 10 min at room temperature before detection on fluorometric imaging plate reader (FLIPR; Molecular Devices). Fluorescence data of Ca^2+ release were collected in real-time at 1 sec intervals for the first 65 sec and at 3 sec intervals for additional 300 sec after individual concentrations of peptide (NMU-25, […], or NTS) treatment. Maximum change in fluorescence over baseline was measured to determine the response of the cells to the individual peptide stimulations.

LC319 cells [4] = assay: Measurement of cAMP levels (cAMP EIA); type: cell-based, human; conditions: final concentrations of 3 to 100 μM
Procedure: Trypsinized LC319, REF-LC-AI, NCI-H358 and SK-MED-1 cells were seeded onto a 96-well microtiter plate (5.0×10^4 cells) and cultured in appropriate medium supplemented with 10% FCS for 24 hours, and then the medium was changed to serum free/1 mM IBMX (isobutylmethylxanthine) 20 min prior to the assay. Next, the cells were incubated with individual concentrations of peptides (NMU-25, GHRL, or NTS) for 20 min and cAMP levels of the cells were measured using cAMP EIA System (GE Healthcare Bio-sciences).

NSCLC cells = assay: Competition of NMU-induced cAMP production; type: cell-based
LC319 cells [5] = assay: Flow cytometry of cell cycle after siRNA transfection; type: cell-based, human
Procedure: Cells were plated at a density of 5×10^5 cells/100-mm dish, transfected with siRNA-expression vectors, and cultured in the presence of appropriate concentrations of geneticin. Four days after transfection, the culture medium was replaced with geneticin-free medium. Cells were incubated for additional 24 hours, then trypsinized, collected in PBS, and fixed in 70% cold ethanol for 30 min. After treatment with 100 μg/ml RNase (Sigma-Aldrich Co.), the cells were stained with 50 μg/ml propidium iodide (Sigma-Aldrich Co.) in PBS. Flow cytometry was performed on Becton Dickinson FACSCalibur and analyzed by Cell Quest software (Becton Dickinson Biosciences). The percentage of nuclei in G0/G1, S, and G2/M phases on the cell cycle and the sub-GI population, were determined from at least 20,000 ungated cells.

FLAG-tagged NTSR1 = molecular target: T3, FLAG-tagged NTSR1 (Homo sapiens (Human), UniProt P30989 1-418); assay: DSP cross-linking, immunoprecipitation and Western blot of transfected COS-7 cells
T3 construct: Transiently expressed in COS-7 cells; COS-7 cells also express GHSR1b and NTSR1 endogenously, so in the cells transfected only with FLAG-GHSR1b the NTSR1 partner is the endogenous COS-7 protein; also called NTSR1 (p3XFLAG-CMV10 construct); not shown: FLAG tag from the p3XFLAG-CMV10 vector
T3 sequence (P30989 whole entry A200T): as the sequence (P30989 whole entry, one chain of several) above, with A200T counted along it
Procedure: (§2) Cultured cells were washed twice with ice-cold PBS(−) and incubated with 5 mM Dithiobis [succinimidyl propionate] (DSP) (PIERCE) for 60 min in PBS(−) on ice. The reaction was quenched by incubation with Stop solution (1 M Tris, pH 7.5) at a final concentration of 50 mM Tris for 15 min on ice. The cells were then washed twice with ice-cold PBS(−) and lysed in ice-cold Tx/G buffer (300 mM NaCl, 1% Triton X-100, 10% glycerol, 1.5 MM MgCl₂, 1 mM CaCl₂, and 10 mM iodoacetamide in 50 mM Tris-Cl, pH 7.4) containing protease inhibitor (Protease Inhibitor Cocktail Set III; Calbiochem) for 60 min on ice. […] The solutions were subjected to SDS-PAGE, and receptor proteins were detected by Western blot analysis using mouse monoclonal anti-FLAG M2 antibody, goat polyclonal anti-NTSR1 antibody, or rabbit polyclonal anti-GHSR antibody as the primary antibody, and rec-Protein G-Peroxidase Conjugate (ZYMED Laboratories, Inc.) to detect the antigen-antibody complexes.
To examine direct association between GHSR1b and NTSR1, either or both of FLAG-tagged GHSR1b and FLAG-tagged NTSR1 were transiently expressed in COS-7 cells (FIG. 2A depicts the data of transient GHSR1b expression, and FIG. 2B the expression of both receptors). […] No such species were detected when empty vector (mock) was transfected to COS-7 cells as the negative control.

[6] = molecular target: the molecule itself; assay: anti-FLAG immunoprecipitation, SDS-PAGE, immunoblot with anti-FLAG, anti-NTSR1 or anti-GHSR antibody
Source text: Cell lysates from COS-7 cells that transiently express the FLAG-tagged GHSR1b, and those co-expressing both the FLAG-tagged GHSR1b and NTSR1 were immunoprecipitated with anti-FLAG antibody, subjected for SDS-PAGE, and then immunoblotted with anti-FLAG antibody (A), with anti-NTSR1 antibody (B), or with anti-GHSR antibody (C). The arrows indicate the monomer, heterodimer, and homodimers of the receptors. The molecular weight (kDa) markers are indicated on the left side of individual panels. Non-specific immunoreactive protein band detected by anti-FLAG antibody is indicated with asterisks.
as §2, with “ice.” for “ice. The cells were then washed twice with ice-cold PBS(−) and lysed in ice-cold Tx/G buffer (300 mM NaCl, 1% Triton X-100, 10% glycerol, 1.5 MM MgCl₂, 1 mM CaCl₂, and 10 mM iodoacetamide in 50 mM Tris-Cl, pH 7.4) containing protease inhibitor (Protease Inhibitor Cocktail Set III; Calbiochem) for 60 min on ice.”

COS-7 cells = assay: Flow-cytometric binding of rhodamine-labeled NMU-25 to cells; conditions: 0.5-10 μM, 2 hours at room temperature
Procedure: (11) Cell-Growth and Colony-Formation Assays COS-7 transfectants that stably express NMU were seeded onto 6-well plates (5×10^4 cells/well), and maintained in medium containing 10% FCS and 0.4 mg/ml geneticin for 24, 48, 72, 96, 120, and 144 hours. At each time point, cell proliferation was evaluated by MTT assay using Cell Counting Kit (WAKO). Colonies were counted at 144 hours. All experiments were done in triplicate. Interaction of NMU-25 with COS-7 cells were examined by flow-cytometric analysis. Specifically, subconfluent cells were harvested in Cell Dissociation Solution (Sigma-Aldrich Co.) and suspended in DMEM. Then, 1×10^6 cells/microtube were washed with assay buffer (PBS(−) with 10 mM MgCl2, 2 mM EDTA, and 0.1% BSA), and the cells were incubated with 0.5-10 μM rhodamine-labeled NMU-25 peptide (NMU-25-rhodamine; Phoenix Pharmaceuticals, Inc.) in assay buffer for 2 hours at room temperature. Subsequently, the cells were washed twice with assay buffer.
To detect the population of cells binding to rhodamine-labeled NMU-25, flow cytometry was performed using Becton Dickinson FACSCalibur and analyzed by Cell Quest software. The growth effect of NMU on NSCLC cells was also examined using LC319 cells transiently transfected with plasmids expressing NMU or mock plasmids. The cells were cultured in RPMI containing 10% FCS and geneticin (1 mg/ml) for 18 days, and colonies were counted.

LC319 cells [7] = assay: Internalization study with fluorescence ligand of NMU (confocal microscopy); type: cell-based, human
Procedure: LC319 cells were grown in DMEM containing 10% FCS. The cells were washed in PBS(−), and preincubated for 10 min at 37° C. in DMEM containing 0.1% BSA. The cells were then incubated for various periods of time with Alexa Fluor 594-labeled NMU-25 peptide in DMEM containing 0.1% BSA. At the end of incubation, the cells were washed three times with ice-cold PBS(−), fixed with 4% paraformaldehyde solution, initially for 5 min on ice and then for 15 min at room temperature. The cells were washed, and treated with DAPI. Images were viewed and assessed using confocal microscopy (TCS SP2 AOBS; Leica Microsystems). Optical sections with intervals of 0.25 μm were taken with 63×/1.4 objective.

T1 sequence (P30989 whole entry, one chain of several): as the sequence (P30989 whole entry, one chain of several) above

Cy5-labeled NMU-25: Cy5 fluorescence-labeled NMU-25 peptide for the receptor-ligand binding assay (FRVDEEFQSPFASQSRGYFLFRPRN; ends and bridges not checked; also: Cy5 fluorescence label, site not given here)
binding to the cell surface [1]: detected to bind to the surface | binding to the cell surface [2]: detected to bind to the surface

nerotensin [NTS]
intracellular Ca^2+ flux / mobilization (LC319 cells [3]): caused the mobilization response | cAMP production (LC319 cells [4]): did not enhance | NMU-induced cAMP production (NSCLC cells): competitively inhibited

si-EGFP: control siRNA against enhanced green fluorescent protein gene, 5′-GAAGCAGCACGACTTCTTC-3′ (SEQ ID NO: 46) (chemistry not given here)
sub-GI fraction (LC319 cells [5]): 11.2%

B1: FLAG-tagged GHSR1b (receptor)
chain: MWNATPSEEPGFNLTLADLDWDASPGNDSLGDELLQLFPAPLLAGVTATCVALFVVGIAGNLLTMLVVSRFRELRTTTNLYLSSMAFSDLLIFLCMPLDLVRLWQYRPWNFGDLLCKLFQFVSESCTYATVLTITALSVERYFAICFPLRAKVVVTKGRVKLVIFVIWAVAFCSAGPIFVLVGVEHENGTDPWDTNECRPTEFAVRSGLLTVMVWVSSIFFFLPVFCLTVLYSLIGRKLWRRRRGDAVVGASLRDQNHKQTVKMLGGSQRALRLSLAGPILSLCLLPSL
notes: Transiently expressed in COS-7 cells; Cross-linked with DSP, immunoprecipitated with anti-FLAG beads and blotted; also called GHSR1b (p3XFLAG-CMV10 construct); not shown: FLAG tag from the p3XFLAG-CMV10 vector
binding result (FLAG-tagged NTSR1): binds | binding result [6]: binds

B2: rhodamine-labeled NMU-25 peptide: rhodamine-labeled NMU-25 peptide (Phoenix Pharmaceuticals, Inc.) (conjugate)
peptide: MLRTESCRPRSPAGQVAAASPLLLLLLLLAWCAGACRGAPILPQGLQPEQQLQLWNEIDDTCSSFLSIDSQPQASNALEELCFMIMGMLPKPQEQDEKDNTKRFLFHYSKTQKLGKSNVVSSVVHPLLQLVPHLHERRMKRFRVDEEFQSPFASQSRGYFLFRPRNGRRSAGFI
binding to the cell surface (flow cytometry) (COS-7 cells): bound to the surface of COS-7 cells in a dose-dependent manner

B3: NMU-25-Alexa594: Alexa Fluor 594-labeled NMU-25 peptide (conjugate)
peptide: MLRTESCRPRSPAGQVAAASPLLLLLLLLAWCAGACRGAPILPQGLQPEQQLQLWNEIDDTCSSFLSIDSQPQASNALEELCFMIMGMLPKPQEQDEKDNTKRFLFHYSKTQKLGKSNVVSSVVHPLLQLVPHLHERRMKRFRVDEEFQSPFASQSRGYFLFRPRNGRRSAGFI
localization of internalized ligand (LC319 cells [7]; 15-min incubation): concentrated in dots or irregular clusters at more peripheral part of the cytoplasm | localization of internalized ligand (LC319 cells [7]; 45-min incubation): concentrated within small spots clustered in the center of the cells, close to the nucleus | internalization of labeled ligand (xz- and yz-projections) (LC319 cells [7]; confocal microscopy): incorporated within the cells
